Results taken from patent US9533026B2, “Polypeptide compounds for inhibiting angiogenesis and tumor growth” (VasGene Therapeutics, Inc., priority 2004, dated 2017).
Like-named read-outs stand apart in the source and are kept apart here.

B1: soluble EphB4: soluble EphB4 extracellular domain protein; exact construct not stated at the results (protein)
chain: LEETLLNTKLETADLKWVTFPQVDGQWEELSGLDEEQHSVRTYEVCDVQRAPGQAHWLRTGWVPRRGAVHVYATLRFTMLECLSLPRAGRSCKETFTVFYYESDADTATALTPAWMENPYIKVDTVAAEHLTRKRPGAEATGKVNVKTLRLGPLSKAGFYLAFQDQGACMALLSLHLFYKKCAQLTVNLTRFPETVPRELVVPVAGSCVVDAVPAPGPSPSLYCREDGQWAEQPVTGCSCAPGFEAAEGNTKCRACAQGTFKPLSGEGSCQPCPANSHSNTIGSAVCQCRVGYFRARTDPRGAPCTTPPSAPRSVVSRLNGSSLHLEWSAPLESGGREDLTYALRCRECRPGGSCAPCGGDLTFDPGPRDLVEPWVVVRGLRPDFTYTFEVTALNGVSSLATGPVPFEPVNVTTDREVPPAVSDIRVTRSSPSSLSLAWAVPRAPSGAVLDYEVKYHEKGAEGPSSVRFLKTSENRAELRGLKRGASYLVQVRARSEAGYGPFGQEHHSQTQLDESEGWREQLA
B2: B4ECv3: soluble extracellular domain derivative of human EphB4, SEQ ID NO:1 (protein)
chain: MELRVLLCWASLAAALEETLLNTKLETADLKWVTFPQVDGQWEELSGLDEEQHSVRTYEVCEVQRAPGQAHWLRTGWVPRRGAVHVYATLRFTMLECLSLPRAGRSCKETFTVFYYESDADTATALTPAWMENPYIKVDTVAAEHLTRKRPGAEATGKVNVKTLRLGPLSKAGFYLAFQDQGACMALLSLHLFYKKCAQLTVNLTRFPETVPRELVVPVAGSCVVDAVPAPGPSPSLYCREDGQWAEQPVTGCSCAPGFEAAEGNTKCRACAQGTFKPLSGEGSCQPCPANSHSNTIGSAVCQCRVGYFRARTDPRGAPCTTPPSAPRSVVSRLNGSSLHLEWSAPLESGGREDLTYALRCRECRPGGSCAPCGGDLTFDPGPRDLVEPWVVVRGLRPDFTYTFEVTALNGVSSLATGPVPFEPVNVTTDREVPPAVSDIRVTRSSPSSLSLAWAVPRAPSGAWLDYEVKYHEKGAEGPSSVRFLKTSENRAELRGLKRGASYLVQVRARSEAGYGPFGQEHHSQTQLDESEGWREQGSKRAILQIEGKPIPNPLLGLDSTRTGHHHHHH
modifications: Recombinant B4ECv3 protein

Tests used:
[1] = tested on: HUVEC; experiment: Endothelial cell tube (cord) formation on Matrigel; assay type: cell-based, human
Method: (§1) Cord formation assay of HUVEC in Matrigel™ (upper row). Cells in exponential growth phase were treated overnight with the indicated concentrations of EphB4 extracellular domain (ECD) prior to plating on Matrigel™. Cells were trypsinized and plated (1×10^5 cells/well) in a 24-well plate containing 0.5 ml Matrigel™. Shown are representative 20× phase contrast fields of cord formation after 8 hr plating on Matrigel™ in the continued presence of the test compounds as shown. Original magnification 200×. KS-SLK cells treated in a similar manner (middle row) in a cord formation assay on Matrigel™. […] After 7 days the plugs were removed, sectioned and stained with H&E to visualize cells migrating into the matrix.
Matrigel (60 μl of 10 mg/ml; Collaborative Lab #35423) is placed in each well of an ice-cold 96-well plate. The plate is allowed to sit at room temperature for 15 minutes then incubated at 37° C. for 30 minutes to permit the matrigel to polymerize. In the mean time, HUVECs are prepared in EGM-2 (Clonetic #CC3162) at a concentration of 2×10^5 cells/ml. The test compound is prepared at 2× the desired concentration (5 concentration levels) in the same medium. Cells (500 μl) and 2× drug (500 μl) is mixed and 200 μl of this suspension are placed in duplicate on the polymerized matrigel. After 24 h incubation, triplicate pictures are taken for each concentration using a Bioquant Image Analysis system. Drug effect (IC50) is assessed compared to untreated controls by measuring the length of cords formed and number of junctions.
Matrigel (60 μl of 10 mg/ml; Collaborative Lab, Cat. No. 35423) was placed in each well of an ice-cold 96-well plate. The plate was allowed to sit at room temperature for 15 minutes then incubated at 37° C. for 30 minutes to permit Matrigel to polymerize. In the mean time, human umbilical vein endothelial cells were prepared in EGM-2 (Clonetic, Cat. No. CC3162) at a concentration of 2×10^5 cells/ml. The test protein was prepared at 2× the desired concentration (5 concentration levels) in the same medium. Cells (500 μl) and 2× protein (500 μl) were mixed and 200 μl of this suspension were placed in duplicate on the polymerized Matrigel. After 24 h incubation, triplicate pictures were taken for each concentration using a Bioquant Image Analysis system. Protein addition effect (IC50) was assessed compared to untreated controls by measuring the length of cords formed and number of junctions.

[2] = tested on: HUVECS; experiment: MTS cytotoxicity assay; assay type: cell-based, human
[3] = tested on: vascularization of Matrigel plugs; experiment: Murine Matrigel plug angiogenesis assay; assay type: in vivo, mouse; conditions: for vascularization of Matrigel plugs / in vivo angiogenesis: plugs with bFGF and VEGF, s.c., mice; for infiltration / invasion of cells into Matrigel plugs: plugs with growth factors
Method: as §1
Matrigel supplemented with bFGF and VEGF with and without soluble EphB4 was injected s.c. into Balb/C nu/nu mice, forming semi-solid plugs, for six days. Plugs without growth factors had virtually no vascularization or vessel structures after 6 days (FIG. 21). In contrast, plugs supplemented with bFGF and VEGF had extensive vascularization and vessels throughout the plug.
In vivo angiogenesis was assayed in mice as growth of blood vessels from subcutaneous tissue into a Matrigel plug containing the test sample. Matrigel rapidly forms a solid gel at body temperature, trapping the factors to allow slow release and prolonged exposure to surrounding tissues. Matrigel (8.13 mg/ml, 0.5 ml) in liquid form at 4° C. was mixed with Endothelial Cell Growth Supplement (ECGS), test proteins plus ECGS or Matrigel plus vehicle alone (PBS containing 0.25% BSA). Matrigel (0.5 ml) was injected into the abdominal subcutaneous tissue of female nu/nu mice (6 wks old) along the peritoneal mid line. There were 3 mice in each group. The animals were cared for in accordance with institutional and NIH guidelines. At day 6, mice were sacrificed and plugs were recovered and processed for histology. Typically the overlying skin was removed, and gels were cut out by retaining the peritoneal lining for support, fixed in 10% buffered formalin in PBS and embedded in paraffin. Sections of 3 μm were cut and stained with H&E or Masson's trichrome stain and examined under light microscope

[4] = tested on: EphB4 receptor; experiment: EphB4 receptor phosphorylation in HUVECs (Western blot); assay type: cell-based, human; conditions: serum-starved HUVECs, in the presence of EphrinB2Fc
Source text: We examined EphB4 receptor phosphorylation in HUVECs by performing Western blot analyses with lysates from soluble EphB4-treated cells and antibodies against phosphor-tyrosine. […] Ephrin B2Fc without the soluble EphB4 protein induced phosphorylation of EphB4 receptor (FIG. 22).

[5] = tested on: B16 (melanoma); experiment: B16 melanoma tumor in mice, soluble EphB4; assay type: in vivo, mouse
Method: (§2) Tumors were injected premixed with Matrigel plus growth factors and soluble EphB4 subcutaneously. After 10 to 14 days, the mice were injected intravenously with FITC-lectin (green) to assess blood vessel perfusion.
30 athymic nude mice, BALB/c (nu/nu), were each injected with 1×10^6 B16 melanoma cells with 0.1 ml PBS mixed with 0.1 ml matrigel or 1.5×10^6 SCC15 cells resuspended in 200 μl of DMEM serum-free medium and injected subcutaneously on day 0 on the right shoulder region of mice. Proteins were injected intravenously or subcutaneously, around the tumor beginning on day 1 at a loading dose of 4 μg/mg, with weekly injections of 2 ug/mg. (10 μg/g, 50 μg/kg/day), and at 2 weeks post-inoculation. Mice are sacrificed on Day 14. Control mice received PBS 50 μl each day.

[6] = tested on: MCF-7 (breast carcinoma); experiment: MCF-7 tumor in mice, soluble EphB4; assay type: in vivo, mouse
Method: as §2

[7] = tested on: HNSCC-15 cells; experiment: Cell cycle FACS of HNSCC cells with soluble EphB4ECD; assay type: cell-based, human
[8] = tested on: KS-SLK cells; experiment: KS-SLK cord formation on Matrigel; assay type: cell-based, human
Method: as §1

[9] = tested on: SCC15 tumors; experiment: SCC15 tumor growth and histology in nude mice, soluble EphB4; assay type: in vivo, mouse; conditions: treated vs control tumors, CD31

Molecule | endothelial cell tube / tubule / cord formation [1] | endothelial cell tube / tubule / cord formation ([1]; listed as EphB4-ECD) | cytotoxic effect [2] | vascularization of Matrigel plugs / in vivo angiogenesis [3] | vascularization of Matrigel plugs / in vivo angiogenesis ([3]; listed as EphB4-ECD) | infiltration / invasion of cells into Matrigel plugs [3] | infiltration / invasion of cells into Matrigel plugs ([3]; listed as EphB4 ECD) | level of phosphorylated EphB4 [4] | tumor angiogenesis ([5]; B16, premixed with Matrigel plus growth factors, 10 to 14 days) | tumor angiogenesis ([6]; MCF-7, premixed with Matrigel plus growth factors, 10 to 14 days) | cell cycle distribution [7] | cord formation [8] | Microvessel density in the outer viable rim of tumor cells [9] | endothelial cell tube / tubule / cord formation ([1]; listed as B4v3) | in vivo tumor growth ([5]; B16 co-injected with matrigel and growth factors) | in vivo tumor growth ([6]; MCF-7 co-injected with matrigel and growth factors)
B1 | significantly inhibited | inhibits | no detectable cytotoxic effect | markedly reduced | inhibits | significantly inhibited | almost completely inhibited | rapid and transient decrease | marked inhibition | marked inhibition | accumulation in subG0/G1 and S/G2 phases | inhibits | similar |  |  | 
B2 | inhibition |  |  |  |  | inhibits invasion |  |  |  |  |  |  |  | strong inhibition | inhibits | inhibits
